Results as given in patent US20120122783A1 (INDIANA UNIVERSITY RESEARCH AND TECHOLOGY, published 2012).

Key:
[1] = molecular target: human glucagon receptor (human, UniProt P47871 26-477); experiment: cell-based or functional assay
[2] = molecular target: human GLP-1 receptor (human, UniProt P43220 24-463); experiment: cell-based or functional assay

Sequence of human glucagon receptor (P47871 26-477): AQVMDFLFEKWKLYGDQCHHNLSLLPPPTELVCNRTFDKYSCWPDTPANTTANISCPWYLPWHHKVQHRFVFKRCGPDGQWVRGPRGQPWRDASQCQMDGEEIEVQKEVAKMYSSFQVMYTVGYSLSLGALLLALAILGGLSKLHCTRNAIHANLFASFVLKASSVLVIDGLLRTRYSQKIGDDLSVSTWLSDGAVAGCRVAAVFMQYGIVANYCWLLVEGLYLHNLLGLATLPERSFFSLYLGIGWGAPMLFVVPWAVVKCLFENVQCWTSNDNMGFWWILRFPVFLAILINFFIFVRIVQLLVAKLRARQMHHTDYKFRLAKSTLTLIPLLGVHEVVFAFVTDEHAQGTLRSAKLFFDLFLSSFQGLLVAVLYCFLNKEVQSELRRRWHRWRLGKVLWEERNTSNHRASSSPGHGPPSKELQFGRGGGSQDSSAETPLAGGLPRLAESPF

HSQGTFTSDYSRYLDSRRAQDFVQWLMNK [Glucagon R12 K29]
cAMP Induction EC50 [1]: 0.81 nM
cAMP Induction EC50 [2]: 0.41 nM
